According to FireProtDB (doi:10.1021/bi100877y):

B1: Outer membrane porin C, P06996 (parent)
chain: MKVKVLSLLVPALLVAGAANAAEVYNKDGNKLDLYGKVDGLHYFSDNKDVDGDQTYMRLGFKGETQVTDQLTGYGQWEYQIQGNSAENENNSWTRVAFAGLKFQDVGSFDYGRNYGVVYDVTSWTDVLPEFGGDTYGSDNFMQQRGNGFATYRNTDFFGLVDGLNFAVQYQGKNGNPSGEGFTSGVTNNGRDALRQNGDGVGGSITYDYEGFGIGGAISSSKRTDAQNTAAYIGNGDRAETYTGGLKYDANNIYLAAQYTQTYNATRVGSLGWANKAQNFEAVAQYQFDFGLRPSLAYLQSKGKNLGRGYDDEDILKYVDVGATYYFNKNMSTYVDYKINLLDDNQFTRDAGINTDNIVALGLVYQF

Variants of: B1
Details: Escherichia coli (strain K12); pH 7; Thermal; DSC; phosphate 50 mM; structure 2J1N; whole UniProt chain shown

Variant | Tm | change of melting temperature, mutant - wild type (higher = more stable) | unfolding enthalpy (calorimetric)
R95A | 81.3 °C | -5.66 °C | 258 kcal/mol
R95A D126G | 73.9 °C | -13 °C | 192 kcal/mol
D126G | 81.5 °C | -5.44 °C | 304 kcal/mol
